In publication PMC9864105:

Biological target: recombinant HIV-1 RTIN (reverse transcriptase and integrase in fusion form, the Pol precursor intermediate) (HIV-1 (NL4-3))
Assay: SEC

## recombinant HIV-1 RTIN (reverse transcriptase and integrase in fusion form, the Pol precursor intermediate) (enzyme)
  share of rRTIN in the hexamer or higher multimer: 80%
